Consider two molecules from article PMC12400190, “Crystal structures of 40- and 71-substitution variants of hydroxynitrile lyase from rubber tree” (Acta Crystallographica Section D: Structural Biology, 2025).

What is called Km is the concentration of substrate that gives half-maximal velocity. As usually defined, the kcat is the maximal rate divided by the concentration of active sites. As usually defined, the kcat/Km is the second-order rate constant that governs catalysis at low substrate concentration.

Common to all, as to conditions: 5 mM BES pH 7.2, 7-8% (v/v) acetonitrile
The target in one data set is T1, HbHNL (Hevea brasiliensis, UniProt P52704).
T1 construct: gene HNL; full length 257 aa; variant structures 8sni (HNL40), 9clr (HNL71); dimer
In words: spectrophotometric ester hydrolysis at […] nm, Michaelis-Menten fit. Type of data set: biochemical.

The target in a further data set is T2, SABP2 (Nicotiana tabacum, UniProt Q6RYA0).
T2 construct: production of the assayed sample not described in the main text
T2 sequence (Q6RYA0 1-260): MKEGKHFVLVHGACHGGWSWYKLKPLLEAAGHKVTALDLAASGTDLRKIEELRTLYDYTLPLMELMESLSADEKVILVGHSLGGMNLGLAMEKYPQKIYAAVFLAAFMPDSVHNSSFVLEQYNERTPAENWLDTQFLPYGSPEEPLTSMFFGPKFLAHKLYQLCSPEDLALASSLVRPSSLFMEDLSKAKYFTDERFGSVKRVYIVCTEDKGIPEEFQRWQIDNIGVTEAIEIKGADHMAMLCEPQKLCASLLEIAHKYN
The description is as above. Type of data set: biochemical.

Data set [1] deals with CC(=O)Oc1ccc([N+](=O)[O-])cc1. Kind of data set: purified protein.

T1 sequence (P52704 whole entry): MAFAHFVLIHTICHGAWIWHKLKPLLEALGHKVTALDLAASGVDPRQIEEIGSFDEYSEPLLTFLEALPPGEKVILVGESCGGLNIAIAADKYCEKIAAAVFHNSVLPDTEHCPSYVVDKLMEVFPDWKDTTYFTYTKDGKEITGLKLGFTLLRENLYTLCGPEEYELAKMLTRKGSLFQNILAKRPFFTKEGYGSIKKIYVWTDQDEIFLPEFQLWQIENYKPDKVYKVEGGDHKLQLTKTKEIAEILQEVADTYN

For `CC(=O)Oc1ccc([N+](=O)[O-])cc1` [p-nitrophenyl acetate], the Km on HbHNL amounted to 3000 ± 400 µM; on SABP2, 2200 ± 200 µM.
Take “HbHNL (Hevea brasiliensis; C81L/E79H/F210I/H103V/I12A/I209G/K236M/L121Y/L146M/L148F/L152F/N104A/T11G/T151K/V106F/V118L)”: in data set [1], the Km stood at 600 ± 200 µM, the kcat stood at 0.00583 ± 0.000167 s⁻¹ and the kcat/Km stood at 10.7 M⁻¹ s⁻¹.
